Experimental findings from the Immune Epitope Database (IEDB) are described below.

Assay [1] addresses HLA-A*01:01. The experiment in a line: IEDB peptide-MHC binding, purified MHC/competitive/radioactivity; filed as Kd, often an IC50 or EC50 that approximates it; ≥ and ≤ were set here for values at or beyond the usual limits of such assays.
In another assay the target is HLA-A*23:01. The description is as above.
The target of a further assay is HLA-A*24:02. The assay is described as above.
The target in another assay is HLA-A*26:01. The assay is described as above.
The target of a further assay is HLA-A*29:02. Described as above.
A further assay addresses HLA-A*30:02. Described as above.
For a further assay, the target named is HLA-A*02:03. The assay is described as above. As to conditions: source organism: Dengue virus 4 Philippines/H241/1956.
In the next assay the target is HLA-B*51:01. The assay is described as above.
The target in assay [2] is HLA-A*01:01. The experiment in a line: IEDB peptide-MHC binding, purified MHC/direct/fluorescence; filed as Kd, often an IC50 or EC50 that approximates it; ≥ and ≤ were set here for values at or beyond the usual limits of such assays. As to conditions: source organism: SARS-CoV1.
The next assay concerns the target HLA-A*03:01. The assay is described as above. The settings on record: source organism: SARS-CoV1.
The next assay deals with HLA-A*11:01. The description is as above. As to conditions: source organism: SARS-CoV1.
In another assay the target is HLA-B*15:01. Described as above. The settings on record: source organism: SARS-CoV1.
In a further assay the target is HLA-B*58:01. Described as above. As to conditions: source organism: SARS-CoV1.
Where [3] appears, read: source organism: SARS coronavirus Tor2.
The mark [4] stands for this setting: source organism: Lymphocytic choriomeningitis virus (strain Armstrong).
The mark [5] stands for this setting: source organism: Mammarenavirus brazilense.
Where [6] appears, read: source organism: Triticum aestivum.

The Kd is the equilibrium constant for the complex coming apart. For the sequence GYLKPTTFM, the equilibrium dissociation constant (Kd) with HLA-A*01:01 [1] (setting [3]) was not below 78.1 µM; with HLA-A*23:01 (setting [3]) it was 2.54 µM; with HLA-A*24:02 (setting [3]) it was 12.2 µM; with HLA-A*26:01 (setting [3]) it was not below 77.9 µM; in the assay with HLA-A*29:02 (setting [3]) it was 0.538 µM; with HLA-A*30:02 (setting [3]) it was 6.69 µM.

In the case of FLFFMQGKGI, the Kd with HLA-A*02:03 is 0.00377 µM; with HLA-B*51:01 (source organism: Dengue virus 4 Philippines/H241/1956), not below 45.2 µM.

With LIDLQELGKY, the Kd was 0.116 µM with HLA-A*01:01 [1] (setting [3]); not below 70 µM with HLA-A*23:01 (setting [3]); not below 70.3 µM with HLA-A*24:02 (setting [3]); 1.02 µM in the assay with HLA-A*26:01 (setting [3]); 2.82 µM with HLA-A*29:02 (setting [3]); 0.0389 µM with HLA-A*30:02 (setting [3]).

For NGDVVAIDY, the equilibrium dissociation constant (Kd) in the assay with HLA-A*01:01 [1] (setting [3]) is 1.03 µM; with HLA-A*23:01 (setting [3]), not below 77.8 µM; with HLA-A*24:02 (setting [3]), not below 77.6 µM; with HLA-A*26:01 (setting [3]), not below 81.5 µM; with HLA-A*29:02 (setting [3]), 0.825 µM; with HLA-A*30:02 (setting [3]), 1.8 µM.

With NFKHLREFVF, the Kd was not below 70.4 µM with HLA-A*01:01 [1] (setting [3]); 0.115 µM in the assay with HLA-A*23:01 (setting [3]); 0.26 µM with HLA-A*24:02 (setting [3]); not below 69.7 µM with HLA-A*26:01 (setting [3]); 0.0164 µM with HLA-A*29:02 (setting [3]); not below 78.9 µM in the assay with HLA-A*30:02 (setting [3]).

In the case of PMMCPFLFL, the Kd with HLA-A*23:01 (setting [4]) came to 0.22 µM; with HLA-A*24:02 (setting [4]) it was 0.484 µM; in the assay with HLA-A*29:02 (setting [4]), 0.208 µM.

ICSSVLKRY: the Kd with HLA-A*01:01 [1] (setting [5]) is 0.47 µM; with HLA-A*23:01 (setting [5]) it was 14.6 µM; with HLA-A*24:02 (setting [5]), 15.4 µM; with HLA-A*26:01 (setting [5]), not below 77.9 µM; with HLA-A*29:02 (setting [5]), not below 50.6 µM; in the assay with HLA-A*30:02 (setting [5]), 0.302 µM.

With AWPLIVTAL, the Kd in the assay with HLA-A*01:01 [1] (setting [3]) was not below 23 µM; with HLA-A*23:01 (setting [3]), not below 49 µM; with HLA-A*24:02 (setting [3]) it was not below 77.6 µM; with HLA-A*26:01 (setting [3]) it was 17.7 µM; with HLA-A*29:02 (setting [3]) it was not below 75 µM; with HLA-A*30:02 (setting [3]), not below 37.9 µM.

Turning to PYPQPQPQY, the Kd in the assay with HLA-A*01:01 [1] (setting [6]) was not below 78.1 µM; in the assay with HLA-A*23:01 (setting [6]), not below 49.4 µM; in the assay with HLA-A*24:02 (setting [6]) it was not below 237 µM; with HLA-A*26:01 (setting [6]), not below 77.9 µM; in the assay with HLA-A*29:02 (setting [6]), 0.23 µM; with HLA-A*30:02 (setting [6]), 0.639 µM.

With TSNPKTPKY, the Kd with HLA-A*01:01 [2] is 4.51 µM; in the assay with HLA-A*03:01, 1.23 µM; with HLA-A*11:01, 14.3 µM; with HLA-B*15:01 it was 0.393 µM; with HLA-B*58:01, 0.212 µM; in the assay with HLA-A*23:01 (setting [3]), not below 77.8 µM. The Kd with HLA-A*24:02 (setting [3]) was not below 77.6 µM; in the assay with HLA-A*26:01 (setting [3]) it was not below 56.4 µM; in the assay with HLA-A*29:02 (setting [3]), 0.549 µM; with HLA-A*30:02 (setting [3]), 0.000228 µM.

For the sequence LALLAAFKV, in the assay with HLA-B*51:01 (source organism: Dengue virus 2 Jamaica/1409/1983), the Kd came out at 0.812 µM.

EFFECFKYLL: the Kd came out at 0.624 µM with HLA-A*23:01 (setting [5]), 1.2 µM with HLA-A*24:02 (setting [5]) and 0.0327 µM in the assay with HLA-A*29:02 (setting [5]).

With CTLSEQLDY, the Kd with HLA-A*01:01 [1] (setting [3]) was 0.00853 µM; in the assay with HLA-A*23:01 (setting [3]), not below 77.8 µM; with HLA-A*24:02 (setting [3]), not below 77.6 µM; with HLA-A*26:01 (setting [3]), 0.842 µM; in the assay with HLA-A*29:02 (setting [3]), 0.00105 µM; in the assay with HLA-A*30:02 (setting [3]), 0.0276 µM.

In the case of AFEKMVSLL, the Kd in the assay with HLA-A*01:01 [1] (setting [3]) was not below 78.1 µM; in the assay with HLA-A*23:01 (setting [3]), 8.39 µM; with HLA-A*24:02 (setting [3]), 11.5 µM; with HLA-A*26:01 (setting [3]), not below 74.4 µM; in the assay with HLA-A*29:02 (setting [3]) it was not below 27.4 µM; with HLA-A*30:02 (setting [3]), not below 81.1 µM.

On to SSQGSEYDY, for which the Kd in the assay with HLA-A*01:01 [1] (setting [3]) was 0.576 µM; in the assay with HLA-A*23:01 (setting [3]), not below 77.8 µM; in the assay with HLA-A*24:02 (setting [3]), not below 77.6 µM; with HLA-A*26:01 (setting [3]), not below 102 µM; in the assay with HLA-A*29:02 (setting [3]) it was 0.294 µM; with HLA-A*30:02 (setting [3]) it was 0.0689 µM.
